This data set concerns the molecule itself. Description: cryo-EM structure.

B1: RsmA (natural protein)
chain: not shown
For the protein B1, the binding result was “binds”.

(Values after publication doi:10.1101/2022.11.16.516715 (bioRxiv, 2022).)
